Data as given in patent US20260097113A1 (Pfizer, published 2026).

Key:
[1] = target: RSV A + RSV B bivalent composition (RSV subtype A; RSV subtype B); test: AM14 Fab titration by SEC; Target cycle; 1 M 40°C
[2] = target: RSV A + RSV B bivalent composition (RSV subtype A; RSV subtype B); test: AM14 Fab titration by SEC; Target cycle; 3 M 2-8°C
[3] = target: RSV A + RSV B bivalent composition (RSV subtype A; RSV subtype B); test: AM14 Fab titration by SEC; Low-Fast cycle; 1 M 40°C
[4] = target: RSV A + RSV B bivalent composition (RSV subtype A; RSV subtype B); test: AM14 Fab titration by SEC; Low-Fast cycle; 3 M 40°C
[5] = target: RSV A + RSV B bivalent composition (RSV subtype A; RSV subtype B); test: AM14 Fab titration by SEC; High-Slow 1 cycle; 1 M 2-8°C
[6] = target: RSV A + RSV B bivalent composition (RSV subtype A; RSV subtype B); test: AM14 Fab titration by SEC; High-Slow 2 cycle; 1 M 25°C (second value)
[7] = target: RSV A + RSV B bivalent composition (RSV subtype A; RSV subtype B); test: AM14 Fab titration by SEC; High-Slow 1 cycle; 1 M 2-8°C (second value)
[8] = target: RSV A + RSV B bivalent composition (RSV subtype A; RSV subtype B); test: AM14 Fab titration by SEC; composition of Table 14; Cumulative Aggressive (High-Slow) cycle
[9] = target: T1, RSV F protein of subtype A comprising a polypeptide of SEQ ID NO: 1 and a polypeptide of SEQ ID NO: 2 (RSV subtype A, UniProt P11209 137-513; P03420 26-109); test: AM14 ELISA; F14 (pH 7, 50 mM NaCl, 4.5% sucrose); T0
T1 construct: Stabilized prefusion F trimer made of three F2-F1 heterodimers; Produced recombinantly in CHO cells; also called RSV A; RSVA
T1 chain 1: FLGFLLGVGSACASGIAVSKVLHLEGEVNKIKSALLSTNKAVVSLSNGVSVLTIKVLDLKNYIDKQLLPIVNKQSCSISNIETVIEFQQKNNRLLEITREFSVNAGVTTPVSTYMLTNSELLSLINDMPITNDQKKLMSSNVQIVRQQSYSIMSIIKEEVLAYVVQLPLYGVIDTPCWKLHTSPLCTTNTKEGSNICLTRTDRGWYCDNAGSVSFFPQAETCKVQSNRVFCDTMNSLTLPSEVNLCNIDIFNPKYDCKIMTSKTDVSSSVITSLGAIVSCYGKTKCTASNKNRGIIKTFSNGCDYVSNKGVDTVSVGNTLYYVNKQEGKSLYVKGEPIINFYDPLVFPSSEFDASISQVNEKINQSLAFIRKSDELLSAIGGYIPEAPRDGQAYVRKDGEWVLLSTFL
T1 chain 2: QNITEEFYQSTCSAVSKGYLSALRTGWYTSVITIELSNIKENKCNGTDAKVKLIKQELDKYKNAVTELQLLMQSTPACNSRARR

[10] = target: T1, RSV F protein of subtype A comprising a …; test: AM14 ELISA; F3 (pH 8, 0 mM NaCl, 9% sucrose); 2 wk 25°C
[11] = target: T1, RSV F protein of subtype A comprising a …; test: AM14 ELISA; F15 (pH 6, 0 mM NaCl, 9% sucrose); 1 wk 25°C
[12] = target: T1, RSV F protein of subtype A comprising a …; test: AM14 ELISA; F15 (pH 6, 0 mM NaCl, 9% sucrose); 2 wk 25°C
[13] = target: T1, RSV F protein of subtype A comprising a …; test: AM14 ELISA; F6 (pH 7, 0 mM NaCl, 4.5% sucrose); 1 wk 25°C
[14] = target: T1, RSV F protein of subtype A comprising a …; test: AM14 ELISA; F7 (pH 6, 100 mM NaCl, 0% sucrose); 1 wk 25°C
[15] = target: T1, RSV F protein of subtype A comprising a …; test: AM14 ELISA; F4 (pH 6, 50 mM NaCl, 4.5% sucrose); 2 wk 25°C
[16] = target: T1, RSV F protein of subtype A comprising a …; test: AM14 ELISA; F13 (pH 7, 100 mM NaCl, 4.5% sucrose); 1 wk 5°C
[17] = target: T1, RSV F protein of subtype A comprising a …; test: AM14 ELISA; F13 (pH 7, 100 mM NaCl, 4.5% sucrose); 2 wk 25°C
[18] = target: T1, RSV F protein of subtype A comprising a …; test: AM14 ELISA; F18 (pH 7, 50 mM NaCl, 3% sucrose + 3% mannitol); 1 wk 5°C

Molecule: AM14 Fab
- Prefusion Content (%) [1]: 64%
- Prefusion Content (%) [2]: 69%
- Prefusion Content (%) [3]: 65%
- Prefusion Content (%) [4]: 70%
- Prefusion Content (%) [5]: 52%
- Prefusion Content (%) [6]: 59%
- Prefusion Content (%) [7]: 44%
- Prefusion Content (%) [8]: 64%

B1: AM14 (trimeric prefusion specific antibody of the AM14 ELISA) (antibody, V domains shown)
VH: EVQLVESGGGVVQPGRSLRLSCAASGFSFSHYAMHWVRQAPGKGLEWVAVISYDGENTYYADSVKGRFSISRDNSKNTVSLQMNSLRPEDTALYYCARDRIVDDYYYYGMDVWGQGATVTVSS
VL: DIQMTQSPSSLSASVGDRVTITCQASQDIKKYLNWYHQKPGKVPELLMHDASNLETGVPSRFSGRGSGTDFTLTISSLQPEDIGTYYCQQYDNLPPLTFGGGTKVEIKR
notes: Antibody as used in the AM14 ELISA, detected with an HRP-labeled secondary antibody
- AM14 prefusion content (%), relative to standard [9]: 102%
- AM14 prefusion content (%), relative to standard [10]: 72%
- AM14 prefusion content (%), relative to standard [11]: 99%
- AM14 prefusion content (%), relative to standard [12]: 91%
- AM14 prefusion content (%), relative to standard [13]: 102%
- AM14 prefusion content (%), relative to standard [14]: 75%
- AM14 prefusion content (%), relative to standard [15]: 86%
- AM14 prefusion content (%), relative to standard [16]: 76%
- AM14 prefusion content (%), relative to standard [17]: 37%
- AM14 prefusion content (%), relative to standard [18]: 56%
